Our source for the stoichiometry N values is paper doi:10.1101/2022.01.19.476892.

The target of this experiment is SARS-CoV S-6P protein (SARS-CoV) (UniProt P59594). The experiment in a line: cryo-EM structure.

For the substance “SARS-CoV S-6P protein (from UniProt P59594 14-1195) (domain or fragment)”, the stoichiometry N is 3.
